From article PMC11413682 (2024)

B1: CUL2^ZYG11B (residues 490–728) (domain or fragment)
chain: ELFIVRQLLQIVKQKTNQNSVDTTLKFTLSALWNLTDESPTTCRHFIENQGLELFMRVLESFPTESSIQQKVLGLLNNIAEVQELHSELMWKDFIDHISSLLHSVEVEVSYFAAGIIAHLISRGEQAWTLSRSQRNSLLDDLHSAILKWPTPECEMVAYRSFNPFFPLLGCFTTPGVQLWAVWAMQHVCSKNPSRYCSMLIEEGGLQHLYNIKDHEHTDPHVQQIAVAILDSLEKHIVR

Assays:
[1] = molecular target: B1; assay: ITC
[2] = molecular target: B1; assay: ITC; remark: listed apart in the source
SNX11-degron peptide [3] = assay: ITC
SNX11-degron peptide [4] = assay: ITC; pre-formed ZYG11B/ORF10 N5 peptide complex

GYIN [SARS-CoV-2 ORF10 N4 peptide] gave a Ka [1] of 193000 M⁻¹.

Work on GY [SARS-CoV-2 ORF10 N2 peptide] yielded a Kd [2] of over 200 µM.

GYINV [SARS-CoV-2 ORF10 N5 peptide] gave a Ka [1] of 340000 M⁻¹.

In the case of GYI [SARS-CoV-2 ORF10 N3 peptide], the Ka [1] is reported as 69100 M⁻¹.

With B1 the Kd (SNX11-degron peptide [3]) was 0.4 µM and the Kd (SNX11-degron peptide [4]) was 5.23 µM.
